Changes are numbered by the printed parent chain. In names and notes the source's numbering stands.

Series [1] concerns the molecule itself. In words: cryo-EM structure.
Series [2] concerns the molecule itself. In words: cryo-EM structure. The source holds these as a separate data set.
The series “SEC-MALS” deals with the molecule itself. Put plainly: SEC-MALS. (SEC sorts molecules by how far they enter the pores of the column.)

B1: St3 Cas1 (C-terminal StrepII-Tag), Cas1 homodimer of the St3 Cas1-Cas2 integrase (enzyme, S. thermophilus DGCC 7710)
chain: MAGWRTVVVNIHSKLSYKNNHLIFRNSYKTEMIHLSEIDILLLETTDIVLTTMLVKRLVDENILVIFCDDKRLPTAFLTPYYARHDSSLQIARQIAWKENVKCEVWTAIIAQKILNQSYYLGECSFFEKSQSIMELYHGLERFDPSNREGHSARIYFNTLFGNDFTRESDNDINAALDYGYTLLLSMFAREVVVCGCMTQIGLKHANQFNQFNLASDIMEPFRPIIDRIVYQNRHNNFVKIKKELFSIFSETYLYNGKEMYLSNIVSDYTKKVIKALNQLGEEIPEFRI
Regarding B1, in “cryo-EM structure [1]”, the stoichiometry N (in general, the number of molecules, sites or subunits per partner or assembly) is 2.

B2: St3 Cas1 (C-terminal HisTag), Cas1 homodimer of the St3 Cas1-Cas2 integrase (enzyme, S. thermophilus DGCC 7710)
chain: B1 chain
With B2, in “cryo-EM structure [2]”, the “stoichiometry N” value worked out at 2.

B3: St3Csn2^Y212R+I213R+M215R (Interface 1 mutant of St3Csn2) (natural protein, S. thermophilus DGCC 7710, UniProt G3ECR4 1-219, looked up)
chain: MKINFSLLDEPMEVNLGTVLVIEDVSVFAQLVKEFYQYDEQSNLTIFDSKIRSIRSSELLLITDILGYDINTSQVLKLLHTDIVSQLNDKPEVRSEIDSLVSLITDIIMAECIENELDIEYDEITLLELIKALGVRIETKSCTVFEKIFEILQIFKYLVKKRILVFVNSLSYFSKDEIYQILEYTKLSQADVLFLEPRQIEGIQQFILDKDRRLRPYNN
On to B3, for which, in the series “cryo-EM structure [2]”, the “stoichiometry N” value was found to be 4.

B4: St3Csn2 (accessory protein Csn2 of the S. thermophilus DGCC 7710 CRISPR3 system), homotetrameric ring (natural protein)
chain: B3 chain with R212Y, R213I, R215M
Turning to B4, the “stoichiometry N” value in “SEC-MALS” came to 4.

B5: St3 Cas2 (untagged), Cas2 homodimer of the St3 Cas1-Cas2 integrase (natural protein, S. thermophilus DGCC 7710)
chain: MSYRYMRMILMFDMPTDTAEERKAYRKFRKFLLSEGFIMHQFSVYSKLLLNHTANTAMVGRLKANNPKKGNITILTVTEKQFARMIYLYGDKNTSIANSEERLVFLGDNYCDED
Turning to B5, the “stoichiometry N” value in “cryo-EM structure [1]” worked out at 2.

Values taken from article doi:10.1101/2025.06.12.659244 (bioRxiv, 2025).
